Data: patent publication US20150253303A1 (FORSCHUNGSVERBUND BERLIN E V, published 2015)

T1: KCC1 plasma membrane ion transporter, endogenous in HEK cells (UniProt Q9UP95 1-1085, limits assumed)
T1 construct: whole, on cells; also called SLC12A4
T1 sequence (looked up): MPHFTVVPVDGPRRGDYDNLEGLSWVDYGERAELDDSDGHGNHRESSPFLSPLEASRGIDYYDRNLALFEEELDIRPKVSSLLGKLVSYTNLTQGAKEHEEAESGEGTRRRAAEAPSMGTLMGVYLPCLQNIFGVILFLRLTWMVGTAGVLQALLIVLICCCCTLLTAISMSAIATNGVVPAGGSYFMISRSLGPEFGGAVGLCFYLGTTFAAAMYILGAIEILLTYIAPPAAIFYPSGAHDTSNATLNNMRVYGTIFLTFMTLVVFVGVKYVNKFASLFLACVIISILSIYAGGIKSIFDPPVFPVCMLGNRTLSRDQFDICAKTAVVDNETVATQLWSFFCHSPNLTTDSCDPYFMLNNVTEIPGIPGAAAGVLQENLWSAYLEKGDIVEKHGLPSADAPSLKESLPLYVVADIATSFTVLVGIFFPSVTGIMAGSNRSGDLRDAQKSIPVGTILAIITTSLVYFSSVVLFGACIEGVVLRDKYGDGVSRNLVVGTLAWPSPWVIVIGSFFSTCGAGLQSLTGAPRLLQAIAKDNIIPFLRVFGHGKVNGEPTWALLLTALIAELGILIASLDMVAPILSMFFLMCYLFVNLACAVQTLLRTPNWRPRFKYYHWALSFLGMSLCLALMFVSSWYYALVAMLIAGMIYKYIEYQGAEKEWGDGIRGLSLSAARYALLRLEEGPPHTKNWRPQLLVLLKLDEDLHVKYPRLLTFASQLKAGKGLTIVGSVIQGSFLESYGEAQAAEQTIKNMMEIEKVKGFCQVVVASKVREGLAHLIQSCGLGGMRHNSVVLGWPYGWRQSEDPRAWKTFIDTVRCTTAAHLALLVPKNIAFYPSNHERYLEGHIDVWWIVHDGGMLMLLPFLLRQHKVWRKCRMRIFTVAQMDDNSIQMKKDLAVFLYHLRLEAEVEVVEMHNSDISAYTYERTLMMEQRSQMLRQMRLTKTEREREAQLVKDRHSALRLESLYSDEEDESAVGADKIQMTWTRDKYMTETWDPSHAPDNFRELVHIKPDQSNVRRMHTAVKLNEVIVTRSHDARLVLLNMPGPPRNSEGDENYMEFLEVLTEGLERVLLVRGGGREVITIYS

B1: LRRC8A (leucine-rich repeat-containing protein 8, family member A), human (other, UniProt Q8IWT6 1-810, looked up)
chain: MIPVTELRYFADTQPAYRILKPWWDVFTDYISIVMLMIAVFGGTLQVTQDKMICLPCKWVTKDSCNDSFRGWAAPGPEPTYPNSTILPTPDTGPTGIKYDLDRHQYNYVDAVCYENRLHWFAKYFPYLVLLHTLIFLACSNFWFKFPRTSSKLEHFVSILLKCFDSPWTTRALSETVVEESDPKPAFSKMNGSMDKKSSTVSEDVEATVPMLQRTKSRIEQGIVDRSETGVLDKKEGEQAKALFEKVKKFRTHVEEGDIVYRLYMRQTIIKVIKFILIICYTVYYVHNIKFDVDCTVDIESLTGYRTYRCAHPLATLFKILASFYISLVIFYGLICMYTLWWMLRRSLKKYSFESIREESSYSDIPDVKNDFAFMLHLIDQYDPLYSKRFAVFLSEVSENKLRQLNLNNEWTLDKLRQRLTKNAQDKLELHLFMLSGIPDTVFDLVELEVLKLELIPDVTIPPSIAQLTGLKELWLYHTAAKIEAPALAFLRENLRALHIKFTDIKEIPLWIYSLKTLEELHLTGNLSAENNRYIVIDGLRELKRLKVLRLKSNLSKLPQVVTDVGVHLQKLSINNEGTKLIVLNSLKKMANLTELELIRCDLERIPHSIFSLHNLQEIDLKDNNLKTIEEIISFQHLHRLTCLKLWYNHIAYIPIQIGNLTNLERLYLNRNKIEKIPTQLFYCRKLRYLDLSHNNLTFLPADIGLLQNLQNLAITANRIETLPPELFQCRKLRALHLGNNVLQSLPSRVGELTNLTQIELRGNRLECLPVELGECPLLKRSGLVVEEDLFNTLPPEVKERLWRADKEQA
notes: whole, on cells; Used for endogenous LRRC8A and for transfected LRRC8A; Co-IPs were done on detergent lysates; also called endogenous LRRC8A; native LRRC8A

How the values were obtained:
[1] = biological target: GFP-ClC-1 (human ClC-1 Cl- channel in pEGFP-C1) (human, UniProt P42212 1-238 = GFP; P35523 1-988); experiment: co-immunoprecipitation from double-transfected HEK cells, Western blot
Source text: The changed banding pattern of the mutant might result from altered posttranslational modifications. n.t., non-transfected. (C) Immunofluorescence using HA antibody of non-permeabilized versus permeabilized HeLa cells transfected with GFPLRRC8A carrying an HA-tag as indicated. Overlays of GFP (green) and HA (red) labeling. Insets show exclusively HA-staining. Scale bar, 20 μm. (D) LRRC8A co-precipitated epitopetagged LRRC8B through LRRC8E in double-transfected HEK cells. LRRC8B and LRRC8D were poorly expressible. […] (F) Epitope-tagged LRRC8B through LRRC8E co-precipitated LRRC8A. (G) Heteromerization of endogenous LRRC8 proteins. LRRC8A co-precipitated LRRC8E (for which a suitable antibody was available) in immunoprecipitation with an LRRC8A antibody from wild-type (WT) HEK cell lysate, but not from the LRRC8A−/− knockout (KO, clone 3E7). […] Lysate equivalent to 25% of input was loaded as reference (input).
For co-immunoprecipitation, HEK cells were co-transfected with plasmids (6 μg total) encoding myc-tagged or untagged LRRC8A and N-terminal fusion constructs of LRRC8A-E or ClC-1 (or soluble GFP) on 10 cm dishes using PEI as described above. […] After four washes with 500 μl IP buffer, precipitates were eluted in 40 μl Lämmli sample buffer, separated by SDS-PAGE and analyzed by Western blot as indicated. […]

[2] = biological target: LRRC8C-GFP (human LRRC8C fused C-terminally to GFP) (human, UniProt Q8TDW0 1-803; P42212 1-238 = GFP); experiment: cell-based or functional assay
[3] = biological target: LRRC8D-GFP (human LRRC8D fused C-terminally to GFP) (human, UniProt Q7L1W4 1-858; P42212 1-238 = GFP); experiment: cell-based or functional assay
[4] = biological target: LRRC8E-GFP (human LRRC8E fused C-terminally to GFP) (human, UniProt Q6NSJ5 1-796; P42212 1-238 = GFP); experiment: cell-based or functional assay
[5] = biological target: T1, KCC1 plasma membrane ion transporter, …; experiment: immunoprecipitation with LRRC8A antibody from WT HEK cell lysate, Western blot
[6] = biological target: B1; experiment: immunoprecipitation of endogenous proteins from WT HEK lysate

Row | Binder | binding result [1] | V1/2 from Boltzmann fits (voltage-dependent inactivation of ICl(swell)) [2] | V1/2 from Boltzmann fits (voltage-dependent inactivation of ICl(swell)) [3] | V1/2 from Boltzmann fits (voltage-dependent inactivation of ICl(swell)) [4] | binding result [5] | binding result [6]
1 | B1 | no binding | 116 mV | 72.4 mV | 45.9 mV | no binding | 
2 | LRRC8E, endogenous (native) human protein (other, UniProt Q6NSJ5 1-796, looked up, whole, on cells; Untagged endogenous protein in cell lysates; also called native LRRC8E) MIPVAEFKQFTEQQPAFKVLKPWWDVLAEYLTVAMLMIGVFGCTLQVTQDKIICLPNHELQENLSEAPCQQLLPRGIPEQIGALQEVKGLKNNLDLQQYSFINQLCYETALHWYAKYFPYLVVIHTLIFMVCTSFWFKFPGTSSKIEHFISILGKCFDSPWTTRALSEVSGENQKGPAATERAAATIVAMAGTGPGKAGEGEKEKVLAEPEKVVTEPPVVTLLDKKEGEQAKALFEKVKKFRMHVEEGDILYTMYIRQTVLKVCKFLAILVYNLVYVEKISFLVACRVETSEVTGYASFCCNHTKAHLFSKLAFCYISFVCIYGLTCIYTLYWLFHRPLKEYSFRSVREETGMGDIPDVKNDFAFMLHLIDQYDSLYSKRFAVFLSEVSESRLKQLNLNHEWTPEKLRQKLQRNAAGRLELALCMLPGLPDTVFELSEVESLRLEAICDITFPPGLSQLVHLQELSLLHSPARLPFSLQVFLRDHLKVMRVKCEELREVPLWVFGLRGLEELHLEGLFPQELARAATLESLRELKQLKVLSLRSNAGKVPASVTDVAGHLQRLSLHNDGARLVALNSLKKLAALRELELVACGLERIPHAVFSLGALQELDLKDNHLRSIEEILSFQHCRKLVTLRLWHNQIAYVPEHVRKLRSLEQLYLSYNKLETLPSQLGLCSGLRLLDVSHNGLHSLPPEVGLLQNLQHLALSYNALEALPEELFFCRKLRTLLLGDNQLSQLSPHVGALRALSRLELKGNRLEALPEELGNCGGLKKAGLLVEDTLYQGLPAEVRDKMEEE |  |  |  |  |  | binds
